Experimental data taken from article PMC9482650, “Quantitative fragmentomics allow affinity mapping of interactomes” (Nature Communications, 2022).

Legend:
Experiment in all cases: holdup assay
Set-up in all cases: key: below the threshold = too weak to quantify, mostly under pKd 3.1 to 4
DFNB31_3, Q9P202 = target: T1, DFNB31_3, Q9P202
T1 sequence (Q9P202 811-907, limits assumed, looked up): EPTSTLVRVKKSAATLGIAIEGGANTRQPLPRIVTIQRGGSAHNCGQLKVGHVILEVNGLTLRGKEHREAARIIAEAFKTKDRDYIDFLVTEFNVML

APBA3_1, O96018 = target: T2, APBA3_1, O96018
T2 sequence (O96018 389-490, limits assumed, looked up): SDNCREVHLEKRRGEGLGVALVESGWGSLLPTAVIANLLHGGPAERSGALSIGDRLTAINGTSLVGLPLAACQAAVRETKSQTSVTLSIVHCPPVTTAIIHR

LNX1_2, Q8TBB1 = target: LNX1_2, Q8TBB1
DLG3_2, Q92796 = target: T3, DLG3_2, Q92796
T3 sequence (Q92796 221-321, limits assumed, looked up): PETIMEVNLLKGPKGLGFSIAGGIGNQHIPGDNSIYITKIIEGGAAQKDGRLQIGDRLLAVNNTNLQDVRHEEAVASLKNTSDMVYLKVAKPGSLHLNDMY

GRASP, Q7Z6J2 = target: GRASP, Q7Z6J2
MAGI2_2, Q86UL8 = target: MAGI2_2, Q86UL8
TIAM2, Q8IVF5 = target: T4, TIAM2, Q8IVF5
T4 sequence (Q8IVF5 885-986, limits assumed, looked up): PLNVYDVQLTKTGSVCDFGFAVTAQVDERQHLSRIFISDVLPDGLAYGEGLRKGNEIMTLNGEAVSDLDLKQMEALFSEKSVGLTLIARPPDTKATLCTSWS

RADIL, Q96JH8 = target: T5, RADIL, Q96JH8
T5 sequence (Q96JH8 971-1071, limits assumed, looked up): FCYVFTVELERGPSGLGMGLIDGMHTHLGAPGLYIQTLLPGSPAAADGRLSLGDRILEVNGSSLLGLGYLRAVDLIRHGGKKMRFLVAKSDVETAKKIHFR

GRIP2_6, Q9C0E4 = target: GRIP2_6, Q9C0E4
NOS1, P29475 = target: NOS1, P29475
GRIP2_4, Q9C0E4 = target: GRIP2_4, Q9C0E4
GRID2IP_2, A4D2P6 = target: GRID2IP_2, A4D2P6
PDZRN3_1, Q9UPQ7 = target: T6, PDZRN3_1, Q9UPQ7
T6 sequence (Q9UPQ7 244-349, limits assumed, looked up): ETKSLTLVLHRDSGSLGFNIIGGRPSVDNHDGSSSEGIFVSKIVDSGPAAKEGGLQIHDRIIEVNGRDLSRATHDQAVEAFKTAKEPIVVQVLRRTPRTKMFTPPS

MPDZ_12, O75970 = target: T7, MPDZ_12, O75970
T7 sequence (O75970 1857-1958, limits assumed, looked up): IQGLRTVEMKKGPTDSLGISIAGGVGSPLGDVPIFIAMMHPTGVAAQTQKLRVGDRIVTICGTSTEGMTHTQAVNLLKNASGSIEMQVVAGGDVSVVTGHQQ

FRMPD3, Q5JV73 = target: FRMPD3, Q5JV73
IL16_3, Q14005 = target: IL16_3, Q14005
PICK1, Q9NRD5 = target: PICK1, Q9NRD5
DFNB31_1, Q9P202 = target: T8, DFNB31_1, Q9P202
T8 sequence (Q9P202 135-233, limits assumed, looked up): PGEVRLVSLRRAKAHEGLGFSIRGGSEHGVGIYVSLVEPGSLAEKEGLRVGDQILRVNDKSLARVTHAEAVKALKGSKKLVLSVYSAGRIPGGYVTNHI

Inadl_9, Q8NI35 = target: Inadl_9, Q8NI35
IL16_4, Q14005 = target: IL16_4, Q14005
MPP2, Q14168 = target: T9, MPP2, Q14168
T9 sequence (Q14168 180-250, limits assumed, looked up): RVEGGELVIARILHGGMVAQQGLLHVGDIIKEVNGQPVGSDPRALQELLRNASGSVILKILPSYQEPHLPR

TJP1_3, Q07157 = target: TJP1_3, Q07157
GORASP2, Q9H8Y8 = target: GORASP2, Q9H8Y8
GRIP1_4, Q9Y3R0 = target: T10, GRIP1_4, Q9Y3R0
T10 sequence (Q9Y3R0 467-571, limits assumed, looked up): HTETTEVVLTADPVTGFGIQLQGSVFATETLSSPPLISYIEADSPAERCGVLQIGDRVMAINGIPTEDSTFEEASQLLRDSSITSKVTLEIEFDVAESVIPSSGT

DLG5_1, Q8TDM6 = target: DLG5_1, Q8TDM6
HTRA3, P83110 = target: T11, HTRA3, P83110
T11 sequence (P83110 354-453, limits assumed, looked up): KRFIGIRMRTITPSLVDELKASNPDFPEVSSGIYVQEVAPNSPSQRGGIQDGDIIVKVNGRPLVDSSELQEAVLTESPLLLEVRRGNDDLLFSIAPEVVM

[1] = plain residues with an end cap or a label only (N-terminal biotin on a linker: ado-ado)
[2] = plain residues with an end cap or a label only (N-terminal biotin on a linker: ttds)

Chain of PICK1, Q9NRD5 (Q9NRD5 17-115): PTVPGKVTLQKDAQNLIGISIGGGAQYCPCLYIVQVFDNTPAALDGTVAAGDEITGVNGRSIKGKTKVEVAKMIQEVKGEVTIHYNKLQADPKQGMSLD
Chain of MAGI2_2, Q86UL8 (Q86UL8 410-522): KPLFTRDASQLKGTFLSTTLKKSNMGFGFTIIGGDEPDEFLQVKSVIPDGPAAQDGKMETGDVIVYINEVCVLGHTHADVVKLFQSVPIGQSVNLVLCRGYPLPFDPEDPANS
Chain of IL16_3, Q14005 (Q14005 1107-1207): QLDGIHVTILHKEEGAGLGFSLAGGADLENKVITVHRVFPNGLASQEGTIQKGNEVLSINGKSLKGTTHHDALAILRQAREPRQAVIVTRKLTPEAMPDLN
Chain of LNX1_2, Q8TBB1 (Q8TBB1 371-470): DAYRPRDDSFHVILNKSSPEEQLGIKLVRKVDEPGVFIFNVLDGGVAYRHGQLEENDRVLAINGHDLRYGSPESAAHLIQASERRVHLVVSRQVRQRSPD
Chain of GRIP2_4, Q9C0E4 (Q9C0E4 446-548): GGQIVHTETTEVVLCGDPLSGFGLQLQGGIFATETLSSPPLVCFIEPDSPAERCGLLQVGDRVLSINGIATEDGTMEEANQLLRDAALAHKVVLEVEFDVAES
Chain of TJP1_3, Q07157 (Q07157 416-512): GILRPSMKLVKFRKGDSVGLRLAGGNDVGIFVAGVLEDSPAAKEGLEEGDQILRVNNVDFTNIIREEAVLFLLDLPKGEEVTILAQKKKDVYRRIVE
Chain of FRMPD3, Q5JV73 (Q5JV73 12-100): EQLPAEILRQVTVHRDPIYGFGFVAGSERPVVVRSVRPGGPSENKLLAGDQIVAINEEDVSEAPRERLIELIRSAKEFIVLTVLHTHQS
Chain of GRID2IP_2, A4D2P6 (A4D2P6 272-370): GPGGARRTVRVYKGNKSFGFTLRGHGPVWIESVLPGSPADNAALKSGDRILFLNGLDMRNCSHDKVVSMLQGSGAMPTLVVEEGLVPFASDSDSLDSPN
Chain of DLG5_1, Q8TDM6 (Q8TDM6 617-713): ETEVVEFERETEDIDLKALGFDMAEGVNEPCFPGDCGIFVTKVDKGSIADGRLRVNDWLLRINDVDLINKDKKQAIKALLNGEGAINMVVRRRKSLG
Chain of GRIP2_6, Q9C0E4 (Q9C0E4 648-740): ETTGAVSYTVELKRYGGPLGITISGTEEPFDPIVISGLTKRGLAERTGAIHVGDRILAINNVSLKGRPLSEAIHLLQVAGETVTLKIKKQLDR
Chain of IL16_4, Q14005 (Q14005 1229-1329): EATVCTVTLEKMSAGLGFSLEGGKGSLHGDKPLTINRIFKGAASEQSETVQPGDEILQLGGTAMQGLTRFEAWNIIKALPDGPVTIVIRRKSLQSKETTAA
Chain of Inadl_9, Q8NI35 (Q8NI35 1530-1615): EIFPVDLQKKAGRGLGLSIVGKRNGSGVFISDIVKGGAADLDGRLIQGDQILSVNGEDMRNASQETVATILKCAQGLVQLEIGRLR
Chain of NOS1, P29475 (P29475 9-101): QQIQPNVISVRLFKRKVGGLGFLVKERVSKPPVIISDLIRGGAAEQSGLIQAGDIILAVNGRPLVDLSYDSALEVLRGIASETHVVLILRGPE
Chain of GRASP, Q7Z6J2 (Q7Z6J2 96-193): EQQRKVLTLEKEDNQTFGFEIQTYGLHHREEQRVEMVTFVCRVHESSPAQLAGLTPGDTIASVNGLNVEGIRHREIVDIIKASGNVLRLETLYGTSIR

EDLTKNHDEL [RCN1, Q15293]
pKd (DFNB31_3, Q9P202; [1]): below the threshold
pKd (APBA3_1, O96018; [1]): below the threshold
pKd (LNX1_2, Q8TBB1; [1]): 3.47
pKd (DLG3_2, Q92796; [1]): below the threshold
pKd (GRASP, Q7Z6J2; [1]): 3.86
pKd (MAGI2_2, Q86UL8; [1]): below the threshold
pKd (TIAM2, Q8IVF5; [1]): below the threshold
pKd (RADIL, Q96JH8; [1]): 3.61
pKd (GRIP2_6, Q9C0E4; [1]): below the threshold
pKd (NOS1, P29475; [1]): 3.78
pKd (GRIP2_4, Q9C0E4; [1]): below the threshold
pKd (GRID2IP_2, A4D2P6; [1]): 3.48
pKd (PDZRN3_1, Q9UPQ7; [1]): 3.65
pKd (MPDZ_12, O75970; [1]): below the threshold
pKd (FRMPD3, Q5JV73; [1]): below the threshold
pKd (IL16_3, Q14005; [1]): below the threshold
pKd (PICK1, Q9NRD5; [1]): below the threshold
pKd (DFNB31_1, Q9P202; [1]): below the threshold
pKd (Inadl_9, Q8NI35; [1]): below the threshold
pKd (IL16_4, Q14005; [1]): below the threshold
pKd (MPP2, Q14168; [1]): below the threshold
pKd (TJP1_3, Q07157; [1]): 3.48
pKd (GORASP2, Q9H8Y8; [1]): below the threshold
pKd (GRIP1_4, Q9Y3R0; [1]): below the threshold
pKd (DLG5_1, Q8TDM6; [1]): 3.49
pKd (HTRA3, P83110; [1]): below the threshold

LDSQIQETSI [MAP4, P27816]
pKd (DFNB31_3, Q9P202; [2]): below the threshold
pKd (APBA3_1, O96018; [2]): below the threshold
pKd (LNX1_2, Q8TBB1; [2]): below the threshold
pKd (DLG3_2, Q92796; [2]): 3.93
pKd (GRASP, Q7Z6J2; [2]): below the threshold
pKd (MAGI2_2, Q86UL8; [2]): below the threshold
pKd (TIAM2, Q8IVF5; [2]): below the threshold
pKd (RADIL, Q96JH8; [2]): below the threshold
pKd (GRIP2_6, Q9C0E4; [2]): below the threshold
pKd (NOS1, P29475; [2]): 3.55
pKd (GRIP2_4, Q9C0E4; [2]): below the threshold
pKd (GRID2IP_2, A4D2P6; [2]): 4.29
pKd (PDZRN3_1, Q9UPQ7; [2]): 4.55
pKd (MPDZ_12, O75970; [2]): below the threshold
pKd (FRMPD3, Q5JV73; [2]): below the threshold
pKd (IL16_3, Q14005; [2]): below the threshold
pKd (PICK1, Q9NRD5; [2]): below the threshold
pKd (DFNB31_1, Q9P202; [2]): 5.03
pKd (Inadl_9, Q8NI35; [2]): below the threshold
pKd (IL16_4, Q14005; [2]): below the threshold
pKd (MPP2, Q14168; [2]): below the threshold
pKd (TJP1_3, Q07157; [2]): below the threshold
pKd (GORASP2, Q9H8Y8; [2]): below the threshold
pKd (GRIP1_4, Q9Y3R0; [2]): below the threshold
pKd (DLG5_1, Q8TDM6; [2]): below the threshold
pKd (HTRA3, P83110; [2]): below the threshold
